B2: CoilY probe peptide (peptide)
peptide: MGSSNTVKELKNYIQELEERNAELKNLKEHLKFAKAELEFELAAHKFEGGGAAACLGKLAAALEHHHHHH
modifications: also: label (AF647, rhodamine or biotin) on Cys55 by maleimide, varies between preparations
notes: Recombinant from E. coli, with linker, reactive cysteine and His6 tag; All differently labelled CoilY probes are kept as one molecule; also called Coil5; Zip5

Columns and labels:
[1] = molecular target: T1, CoilY-EGFP-TM; experiment: flow cytometry, live U-2 OS cells, 500 nM probe
T1 construct: also called CoilY-GFP
T1 chain: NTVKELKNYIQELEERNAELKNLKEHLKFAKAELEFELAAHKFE
Description: (§1) Cells were treated with 500 nM AF647-conjugated probe peptide before analysis, and we gated for EGFP-expressing cells.

[2] = molecular target: B2; experiment: purified peptides; interferometry is named among the characterisation methods
[3] = molecular target: T2, CoilE-DHFR; experiment: fluorescent blot on PVDF after SDS-PAGE
T2 construct: Lysate and purified protein resolved by SDS-PAGE and blotted on PVDF
T2 chain: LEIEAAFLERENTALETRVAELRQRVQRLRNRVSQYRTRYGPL

[4] = molecular target: T3, CoilZ-EGFP-TM; experiment: two-target imaging of cells, confocal microscopy, streptavidin-Qdot565 detection
T3 construct: CoilZ fused to the N-terminus of EGFP in pDisplay; also called CoilZ-GFP; CoilZ-EGFP-pDisplay
T3 chain: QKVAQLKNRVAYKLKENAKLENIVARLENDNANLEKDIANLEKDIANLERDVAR

[5] = molecular target: T3, CoilZ-EGFP-TM; experiment: flow cytometry, live U-2 OS cells, 500 nM probe
Description: as §1

[6] = molecular target: T3, CoilZ-EGFP-TM; experiment: flow cytometry, live cells, 300 nM probe
[7] = molecular target: T1, CoilY-EGFP-TM; experiment: flow cytometry, live U-2 OS cells
Description: as §1

[8] = molecular target: T4, CoilY-mCherry-TM; experiment: two-target imaging of cells, confocal microscopy
T4 construct: CoilY fused to the N-terminus of a membrane-targeted mCherry construct; on cells or in HEK293FT lysates; also called CoilY-mCherry-pDisplay
T4 chain: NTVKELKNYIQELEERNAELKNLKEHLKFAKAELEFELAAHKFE

[9] = molecular target: T5, untagged TfR1 (UniProt P02786 1-760, limits assumed); experiment: CLEM of CHO TRVb cells, CoilR-biotin detected by streptavidin-QD655
T5 construct: whole, on cells; Expressed in CHO TRVb cells; control without a coil tag; also called transferrin receptor 1; TfR1-TRVb
T5 sequence (P02786 whole entry): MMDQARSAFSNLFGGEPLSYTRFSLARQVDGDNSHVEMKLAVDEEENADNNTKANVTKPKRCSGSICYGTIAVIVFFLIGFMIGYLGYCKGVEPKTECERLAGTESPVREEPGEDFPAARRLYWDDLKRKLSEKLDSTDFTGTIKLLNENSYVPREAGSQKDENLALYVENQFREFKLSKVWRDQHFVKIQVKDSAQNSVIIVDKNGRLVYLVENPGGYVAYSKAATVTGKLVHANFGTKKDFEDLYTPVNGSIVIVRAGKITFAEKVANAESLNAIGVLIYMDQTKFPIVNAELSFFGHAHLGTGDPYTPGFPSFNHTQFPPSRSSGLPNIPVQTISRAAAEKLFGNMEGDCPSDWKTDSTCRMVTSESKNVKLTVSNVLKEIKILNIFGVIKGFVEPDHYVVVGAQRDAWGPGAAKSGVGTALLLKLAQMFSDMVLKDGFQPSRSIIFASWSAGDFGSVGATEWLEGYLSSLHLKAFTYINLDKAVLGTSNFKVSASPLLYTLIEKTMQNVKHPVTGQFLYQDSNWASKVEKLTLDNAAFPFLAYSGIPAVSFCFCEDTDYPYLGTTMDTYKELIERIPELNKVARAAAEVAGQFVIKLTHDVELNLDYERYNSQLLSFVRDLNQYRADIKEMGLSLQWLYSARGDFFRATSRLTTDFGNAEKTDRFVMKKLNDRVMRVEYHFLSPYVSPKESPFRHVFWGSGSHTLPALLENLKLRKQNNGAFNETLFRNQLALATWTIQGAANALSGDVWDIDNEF
From the text: VIP E/R was used for CLEM imaging of TfR1 receptor (FIG. 7). […] This enabled individual cells' locations to be registered relative to the slide so that they may be reimaged again via SEM. After fluorescent cells were mapped, the coverslips were processed for EM imaging.

[10] = molecular target: T6, H2B-6-CoilE-mEmerald; experiment: colocalisation analysis of micrographs, fixed U-2 OS cells
T6 construct: Expressed in U-2 OS cells; labelled after fixation and permeabilisation; also called mEmerald-CoilE-H2B; not shown: histone H2B (H2B-6 construct); mEmerald, engineered green fluorescent protein
T6 chain: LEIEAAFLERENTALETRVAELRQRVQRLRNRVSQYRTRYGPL
Description: (§2) U-2 OS cells were transfected with mEmerald-actin-C18, mEmerald-CoilE-actin-C18, H2B-6-mEmerald, H2B-6-CoilE-mEmerald, Mito-7-mEmerald, and Mito-7-CoilE-mEmerald and fixed with 4% PFA 24 hours after transfection. […] Cells were fixed and imaged using with line-scanning confocal microscope.
(§3) The cells labeled as in FIG. 15 at low magnification to capture multiple cells.

[11] = molecular target: T7, mEmerald-CoilE-Actin-C18; experiment: as above
T7 construct: Expressed in U-2 OS cells; labelled after fixation and permeabilisation; also called CoilE-tagged actin; not shown: mEmerald, engineered green fluorescent protein; actin (Actin-C18 construct)
T7 chain: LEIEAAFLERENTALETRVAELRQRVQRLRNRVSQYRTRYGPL
Description: as §2, §3

[12] = molecular target: T8, Mito-7-CoilE-mEmerald; experiment: as above
T8 construct: Expressed in U-2 OS cells; labelled after fixation and permeabilisation; also called mEmerald-CoilE-mito; not shown: mEmerald, engineered green fluorescent protein
T8 chain: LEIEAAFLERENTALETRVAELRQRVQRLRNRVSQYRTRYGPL
Description: as §2, §3

[13] = molecular target: T4, CoilY-mCherry-TM; experiment: fluorescent blot on PVDF after SDS-PAGE

B1: CoilZ probe peptide (peptide)
peptide: MGSSQKVAQLKNRVAYKLKENAKLENIVARLENDNANLEKDIANLEKDIANLERDVARGGGAAACLGKLAAALEHHHHHH
modifications: reporter named in each row (AF647, fluorescein or biotin) conjugated to the reactive cysteine by maleimide chemistry; label state not stated for the biophysical characterisation
notes: Recombinant from E. coli, with linker, reactive cysteine and His6 tag; All differently labelled CoilZ probes are kept as one molecule; also called Coil6; Zip6
- fold enhancement of AF647 fluorescence [1]: 4 fold
- Kd [2]: 3.6 nM
- binding result [3]: no binding
- binding result [4]: no binding (tested: 500 nM)

Binder: B2
- fold enhancement of AF647 fluorescence [5]: > 40 fold
- fold increase in AF647 fluorescence [6]: 35 fold
- binding result [7]: no binding (tested: 500 nM)
- binding result [8]: no binding (tested: 500 nM)

B3: CoilR probe peptide (peptide)
peptide: MGGSLEIRAAFLRQRNTALRTEVAELEQEVQRLENEVSQYETRYGPLGGGAAALGCLAAALEHHHHHH
modifications: not fully specified
notes: also called CoilR-Cy5; CoilR-biotin
- binding result [9]: no binding (tested: 100 nM)
- Pearson's correlation between the mEmerald signal and CoilR-Cy5 [10]: 0.9
- Pearson's correlation between the mEmerald signal and CoilR-Cy5 [11]: 0.97
- Pearson's correlation between the mEmerald signal and CoilR-Cy5 [12]: 0.89
- binding result [13]: no binding

From patent US20190383824A1 (OREGON HEALTH AND SCIENCE UNIVERSITY, published 2019)
